Data: article PMC8346517, “The intervening domain is required for DNA-binding and functional identity of plant MADS transcription factors” (Nature Communications, 2021)

Biological target: the molecule itself
Test: crystal structure; SEP3 MI at 6 mg/ml, without DNA; 0.2 M potassium sodium tartrate, 0.1 M bis-tris propane pH 7.5, 20% PEG 3350, 4 °C; space group C222(1), dimers formed by crystallographic symmetry

B1: SEP3^MI (MADS-box and I domain of …3, residues 1-90) (domain or fragment)
chain: not shown
notes: His6-MBP fusion from the vector pETM41, cleaved with TEV protease; residues 1-18 and the 17 C-terminal residues are disordered in the crystal; also called SEP3 MI domain; source: E. coli BL21 Codon Plus, purified (Ni-NTA, heparin, TEV cleavage, Ni-NTA, heparin)
Question: Does B1 bind?
Answer: Result: binds
